{
  "source": "FireProtDB (doi:10.1073/pnas.90.18.8367)",
  "parents": {"B1": {"name": "DNA-Binding protein, P69542 (parent)", "chain": "MIKVEIKPSQAQFTTRSGVSRQGKPYSLNEQLCYVDLGNEYPVLVKITLDEGQPAYAPGLYTVHLSSFKVGQFGSLMIDRLRLVPAK"}},
  "data": [
    {"variants_of": "B1", "details": "Enterobacteria phage fd; pH 7; 25 °C; GdnHCl; CD; MOPS 50 mM; NaCl 100 mM; reversible: yes; structure 1VQB; whole UniProt chain shown", "units": {"ddG of mutation (higher = less stable)": "kcal/mol", "unfolding free energy": "kcal/mol"}, "values": [
      {"variant": "A86T", "ddG of mutation (higher = less stable)": 0.7},
      {"variant": "A86V", "ddG of mutation (higher = less stable)": -0.5},
      {"variant": "F73W", "ddG of mutation (higher = less stable)": -0.8},
      {"variant": "I6V M77I", "unfolding free energy": 0.34},
      {"variant": "L28V", "ddG of mutation (higher = less stable)": -1.1},
      {"variant": "I47F", "ddG of mutation (higher = less stable)": 2},
      {"variant": "I47L", "ddG of mutation (higher = less stable)": 0.7},
      {"variant": "I47M", "ddG of mutation (higher = less stable)": 2.2},
      {"variant": "I47V", "ddG of mutation (higher = less stable)": 2.6},
      {"variant": "R82C", "ddG of mutation (higher = less stable)": 1.5},
      {"variant": "F13T E30F", "unfolding free energy": 1.59},
      {"variant": "V35A", "ddG of mutation (higher = less stable)": 2.2},
      {"variant": "V35C", "ddG of mutation (higher = less stable)": 1.4},
      {"variant": "V35L", "ddG of mutation (higher = less stable)": 2.7},
      {"variant": "V35M", "ddG of mutation (higher = less stable)": 1.1},
      {"variant": "V35I", "ddG of mutation (higher = less stable)": 0.7},
      {"variant": "H64C", "ddG of mutation (higher = less stable)": -0.5},
      {"variant": "F68L", "ddG of mutation (higher = less stable)": 4.3},
      {"variant": "V45C", "ddG of mutation (higher = less stable)": 0.1},
      {"variant": "E30F", "ddG of mutation (higher = less stable)": -2},
      {"variant": "E30F A86V", "unfolding free energy": 2.05},
      {"variant": "E30F A86T", "unfolding free energy": 1.17},
      {"variant": "F13T", "ddG of mutation (higher = less stable)": 0.7},
      {"variant": "L32Y", "ddG of mutation (higher = less stable)": -1},
      {"variant": "I6V E30F", "unfolding free energy": 0.71},
      {"variant": "L32Y R82C", "unfolding free energy": 0.15},
      {"variant": "C33V", "ddG of mutation (higher = less stable)": 0.2},
      {"variant": "C33M", "ddG of mutation (higher = less stable)": 3.5}
    ]}
  ]
}
